From patent publication US20260232732A1 (FUNDACI INSTITUT DE RECERCA CONTRA LA LEUC MIA JOSEP …, published 2026)
Where no end group is shown, it is not given here. The star is where a group is joined. Biotin = O=C1N[C@H]2[C@H](CS[C@H]2CCCCC(=O)*)N1

Tests used:
[1] = molecular target: T1, Pep1-48, N-terminal domain 1 of CCR9, amino acids 1 to 48 (human); experiment: BLI, His-tagged scFv on NTA biosensor, Pep1-48 as analyte, 1:1 global fit; paragraph 309 says that Comp-1 does not bind, in agreement with the BLI results of Table 11
T1 construct: Chemically synthesized (Genscript), purity >75%; also called CCR9 N-terminal 1-48 peptide
T1 peptide: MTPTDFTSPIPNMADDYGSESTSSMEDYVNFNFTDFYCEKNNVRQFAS
Method: The affinity between the CCR9-N-terminal domain 1 of CCR9 and the different scFvs was determined by Bio-Layer Interferometry (BLI), a technique that allows quantitative and qualitative measurement of biomolecular interactions in real-time. Briefly, scFv were immobilized onto NTA Biosensor (Sartorius) and quantification was performed in an Octet RED384 (Sartorius). scFv were dissolved in PBS (150 mM NaCl, 38 mM Na2HPO4, 12 mM NaH2PO4, pH 7.2) and a buffer containing 0.03% Tween-20 in PBS, pH 7.2 was used for baseline steps.

[2] = molecular target: T2, BSA (negative control coating) (bovine, UniProt P02769 25-607); experiment: ELISA; Ab 0.5 ug/mL; repII
T2 construct: also called Negative control BSA
Method: (§1) In brief, plates with each non-conjugated peptide (50 μg/mL) or BSA-conjugated peptide (5 μg/mL) were coated in 0.58M carbonate-bicarbonate buffer pH9.5, 100 μL/well, at 4° C. […] After washing, wells were incubated with the 3, 3′,5,5′-Tetramethylbenzidine (TMB) HRP substrate and reactions were stopped with 2M HCl and OD450 was recorded.

[3] = molecular target: T3, Peptide 1-BSA (MADDYGSEST-C conjugated to BSA) (human); experiment: ELISA; Ab 0.5 ug/mL; repII
T3 peptide: MADDYGSESTC(BSA)
Method: as §1

[4] = molecular target: T4, antigen peptide-BSA (immunisation peptide #1 MADDYGSESTSSMEDYVNFNF-C conjugated to BSA) (human, extra C-terminal Cys conjugated to BSA); experiment: ELISA; Ab 0.5 ug/mL; repII
T4 construct: also called Positive control antigen peptide-BSA; MADDY peptide
T4 peptide: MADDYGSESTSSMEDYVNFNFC
Method: as §1

[5] = molecular target: T5, Peptide 3, non-conjugated (SSMEDYVNFN-C) (human); experiment: ELISA; Ab 0.5 ug/mL; repII
T5 construct: With the extra C-terminal Cys
T5 peptide: SSMEDYVNFNC
Method: as §1

[6] = molecular target: T6, Peptide 2, non-conjugated (GSESTSSMED-C) (human); experiment: ELISA; Ab 0.5 ug/mL; repII
T6 construct: With the extra C-terminal Cys
T6 peptide: GSESTSSMEDC
Method: as §1

[7] = molecular target: T7, Peptide 4-BSA (SMEDYVNFNF-C conjugated to BSA) (human); experiment: ELISA; Ab 0.5 ug/mL; repII
T7 peptide: SMEDYVNFNFC(BSA)
Method: as §1

[8] = molecular target: T8, Peptide 1, non-conjugated (MADDYGSEST-C) (human); experiment: ELISA; Ab 0.5 ug/mL; repII
T8 construct: With the extra C-terminal Cys
T8 peptide: MADDYGSESTC
Method: as §1

[9] = molecular target: T9, Peptide 3-BSA (SSMEDYVNFN-C conjugated to BSA) (human); experiment: ELISA; Ab 0.5 ug/mL; repII
T9 peptide: SSMEDYVNFNC(BSA)
Method: as §1

[10] = molecular target: T10, Peptide 2-BSA (GSESTSSMED-C conjugated to BSA) (human); experiment: ELISA; Ab 0.5 ug/mL; repII
T10 peptide: GSESTSSMEDC(BSA)
Method: as §1

[11] = molecular target: T11, biotin-peptide SSMEDYVNFN (human); experiment: ELISA biotin-peptide; scFv 0.3125 ug/mL; repII
T11 peptide: Biotin-SSMEDYVNFN
Method: (§2) The peptides were synthesized naked or with a N-terminal Biotin modification with a purity of >98%. All four scFvs were verified by ELISA that can be detected with anti-His antibodies. ELISA was performed for scFv-peptide binding validation. Briefly, naked peptides were coated (50 μg/mL) in 0.58M carbonate-bicarbonate buffer pH9.5, 100 μL/well, 4° C. O/N. Then after blocking (3% BSA-PBS, 300 μL/well 37° C. 1.5 h) and washing (PBS+Tween-20 0.05% v/v (0.05% PBST), wells were incubated with each purified scFv antibody at concentration of 1 μg/mL in PBS at 37° C. 1 h. After washing (0.05% PBST), wells were incubated with secondary antibodies (goat anti-His IgG-HRP) in PBS, 37° C., 30 min. After washing, and incubation with TMB substrate, reactions were stopped with 2M HCl and reading was quantified at OD450.
(§3) ELISA with biotin-conjugated peptides (5 μg/mL) was performed very similar to described above with minor modifications.
(§4) A full curve ELISA was performed for each positive scFv/biotin-peptide pair in order to confirm previous results. Tables 15-17 show ELISA results of the dose-dependent full curve for each positive peptide with scFv “CCR9_HUM”, “Comp-2” and “Comp-3”, respectively.

[12] = molecular target: T12, biotin-peptide SMEDYVNFNF (human); experiment: ELISA biotin-peptide; scFv 0.3125 ug/mL; repII
T12 peptide: Biotin-SMEDYVNFNF
Method: as §2, §3, §4

[13] = molecular target: T13, biotin-peptide TSSMEDYVNF (human); experiment: ELISA biotin-peptide; scFv 0.3125 ug/mL; repII
T13 peptide: Biotin-TSSMEDYVNF
Method: as §2, §3, §4

[14] = molecular target: T14, biotin-peptide MEDYVNFNFT (human); experiment: ELISA biotin-peptide; scFv 0.3125 ug/mL; repII
T14 peptide: Biotin-MEDYVNFNFT
Method: as §2, §3, §4

T2 sequence (P02769 25-607 limits assumed): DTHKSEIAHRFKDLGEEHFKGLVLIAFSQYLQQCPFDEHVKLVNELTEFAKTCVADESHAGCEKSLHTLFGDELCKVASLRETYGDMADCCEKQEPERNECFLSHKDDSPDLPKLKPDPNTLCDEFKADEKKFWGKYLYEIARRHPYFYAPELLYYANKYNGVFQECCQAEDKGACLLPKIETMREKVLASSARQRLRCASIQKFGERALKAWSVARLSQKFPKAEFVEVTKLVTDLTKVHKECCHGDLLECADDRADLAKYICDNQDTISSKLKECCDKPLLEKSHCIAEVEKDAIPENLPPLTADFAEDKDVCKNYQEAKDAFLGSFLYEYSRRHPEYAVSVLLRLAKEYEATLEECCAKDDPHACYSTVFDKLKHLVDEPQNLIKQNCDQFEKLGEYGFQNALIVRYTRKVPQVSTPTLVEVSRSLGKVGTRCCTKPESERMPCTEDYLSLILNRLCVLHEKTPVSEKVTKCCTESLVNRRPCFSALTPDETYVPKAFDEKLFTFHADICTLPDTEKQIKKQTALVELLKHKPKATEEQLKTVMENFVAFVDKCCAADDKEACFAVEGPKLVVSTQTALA

B1: Comparative antibody 1 (Comp-1) scFv, SEQ ID NO: 10 from WO2023/037125 A1, His-tagged (scFv)
scFv: QVQLKESGPGLVQPSQTLSLTCTVSGFSVASYDMHWVRLPPGKGLEWMGIIWANGNTHYNSGLKSRLSISRDTSKSQVFLKMNSLQTEDTAIYFCTRGGFAYWGQGTLVTVSSGGGGSGGGGSGGGGSGGGGSDVVMTQTPVSLSVSLGGQVSISCRSSQSLVHNNGNTYLSWYLQKPGQSPQLLIYKVSNRFSGVSDRFSGSGSGTDFTLKISRVEPDDLGVYYCGQGTQYPTFGGGTKLELKHHHHHH
- binding result [1]: no binding

B2: anti-CCR9 antibody clone 115 (murine, from hybridoma #115) (antibody, V domains shown)
VH: QVQLKQSGPELVKPGTSVRVSCTASGYSFTDYIIYWVKQSHGRSLEWIGYIDPNNYNTRYSQKFKGKATLTVDKSSTSAFMHLNSLTSDDSAVYYCARDVYWGQGTTLTVSS
VL: DVVMTQTPLSLTVSLGDQASISCRSSQSLVHSNGKTYLQWYLQKPGQSPKLLIYKVSNRFSGVPDRFSGSGSGTDFTLKISRVEAEDLGVYFCAQSTHVWTFGGGTKLEIKR
notes: Mouse IgG1
- OD450 [2]: 0.02 OD
- OD450 [3]: 0.02 OD
- OD450 [4]: 2.57 OD
- OD450 [5]: 1.83 OD
- OD450 [6]: 0.02 OD
- OD450 [7]: 2.65 OD
- OD450 [8]: 0.02 OD
- OD450 [9]: 2.06 OD
- OD450 [10]: 0.02 OD

B3: CCR9_HUM2 scFv (humanized anti-CCR9 scFv, SEQ ID NO: 17 with C-terminal 6xHis tag) (scFv)
scFv: QVQLVQSGAEVKKPGASVKVSCTASGYSFTDYIIYWVKQAHGQSLEWMGYIDPNNYNTRYSQKFQGKVTITVDKSSTSAYMELNSLTSDDTAVYYCARDVYWGQGTTVTVSSGGGGSGGGGSGGGGSGGGGSDVVMTQTPLSLSVTPGQPASISCRSSQSLVHSNGKTYLQWYLQKPGQSPKLLIYKVSNRFSGVPDRFSGSGSGTDFTLKISRVEAEDVGVYFCAQSTHVWTFGGGTKVEIKRAHHHHHH
- OD450 [11]: 1.73 OD
- OD450 [12]: 1.65 OD
- OD450 [13]: 0.45 OD
- OD450 [14]: 1.35 OD
